In patent publication US20070190075A1, “Hair growth stimulant composition” (Advangen, Inc. c/o National Institute of Advance Science …, priority 2003, published 2007):

System: C3H/He mouse
Assay: Application to mouse after induction of growing stage, with hypodermic FGF-5 injection; shapes and sizes of hair follicles in skin slices
Format: in vivo
Conditions: FGF-5 5 μg hypodermically for 7 days; vs phosphate-buffered saline injected group
Description: The hair on the back of a C3H/He mouse (purchased from Japan SLC, Inc.) of an age of 8 weeks whose hair cycle was in the resting stage was pulled out to induce the growing stage. For 7 days from the day following the induction, FGF-5 of 5 μg was hypodermically injected at the same place every time, and around the injected place, the plant extracts from rose fruit, etc. (50% ethanol solutions), “tea extract” and “green tea extract” described in Example 1 were each further applied in an amount of 0.02 ml/cm^2 once a day. To a mouse of a control group, 50% ethanol was applied once a day in the same manner. Further, as a control to the FGF-5 hypodermic injection group, a mouse group wherein a phosphate-buffered saline solution was injected, was prepared.
On the day following the final application, the mouse was killed by dislocation of cervical vertebrae, and the skin at the applied place was taken. The skin thus taken was subjected to fixation with a 10% formalin aqueous solution, then treatment with an ethanol dehydration series, cleaning with xylene and embedding with paraffin. Using a microtome (available from Yamato), the skin was sliced in such a direction that the hair follicle from the top to the bottom could be completely visible, to prepare a skin slice of 4 μm. The resulting skin slice was extended on a silane-coated slide glass (available from Matsunami). […]

B1: FGF-5: Fibroblast growth factor 5, a cytokine that inhibits hair growth; injected hypodermically as challenge agent (protein, UniProt P12034 21-268, looked up)
Fibroblast growth factor 5: HGEKRLAPKGQPGPAATDRNPRGSSSRQSSSSAMSSSSASSSPAASLGSQGSGLEQSSFQWSPSGRRTGSLYCRVGIGFHLQIYPDGKVNGSHEANMLSVLEIFAVSQGIVGIRGVFSNKFLAMSKKGKLHASAKFTDDCKFRERFQENSYNTYASAIHRTEKTGREWYVALNKRGKAKRGCSPRVKPQHISTHFLPRFKQSEQPELSFTVTVPEKKKPPSPIKPKIPLSAPRKNTNSVKYRLKFRFG
growth of hair follicles after hypodermic FGF-5 injection: growth of the hair follicles was inhibited more than that in the group wherein a phosphate-buffered saline solution had been injected
